± gives the uncertainty stated by the source.
Assay: amyloid nucleation score (Sup35N fusion, yeast selection) (log enrichment); library NNK2; higher = more nucleation; inactive = no reads after selection
In short: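 Growth for 7 days at 30°C on medium lacking adenine and uracil followed a 24-hour induction with 100 μM copper sulfate of psi-negative yeast expressing peptides of 20 random codons fused to Sup35N. Input and output plasmid inserts were sequenced with Illumina, and sequences with under 100 input reads were excluded. Nucleation score is the DiMSum log enrichment of output over input reads, centred on the mode score of non-aggregating sequences.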

| Substance | amyloid nucleation score |
| --- | --- |
| SISAKFSSTSWGGG | 6.444 ± 0.046 |
| LLGESRGVDSLQTTLWRSRR | 0.334 ± 0.24 |
| SLFYPLFLMLGVAYEGSFSW | -1.1 ± 0.61 |
| VLLRDNGLELFAP | 0.779 ± 0.3 |
| VFNSTFANLW | 2.6 ± 0.092 |
| YVNVL | 0.479 ± 0.49 |
| RAYPNLENFLLWRMSNSYLC | -0.542 ± 0.63 |
| KAGTGVVSANK | 0.644 ± 0.39 |
| EVSRKTDTGQLLSDHVFFMN | -2.23 ± 0.78 |
| HVYLSLEDQGILNSTECMQH | -0.393 ± 1.1 |
| IDVGI | 0.106 ± 0.2 |
| VLVCRFQSIFGILVVASCVK | -1.53 ± 0.55 |
| RSIWMKLCMWIECSDKETRF | 4.17 ± 0.13 |
| GEAMSMTEQMTLTRYNYFMY | inactive |
| NWDKKKGRDR | inactive |
| EYNRTLWSCYHWFVHVPPTN | -0.171 ± 1 |
| SLAWARISGVVAICTVGRGF | 7.44 ± 0.032 |
| RLINRSDEVYSFLFKRRGSK | inactive |
| HLNWHLFILGLFGSATGEDI | -1.48 ± 1.1 |
| WAWVYGCDGYLIGSSRLANG | 0.368 ± 0.25 |
| SIFFNRASCLRRV | inactive |
| ASHRVNGEVRYRRWSVLKRM | 0.839 ± 0.24 |
| SQWSCVRTSFGPPMYKWFDL | 5.655 ± 0.045 |
| TVGVCGTLPGSASRHVYFRE | 0.286 ± 0.24 |
| IVDSVR | 0.388 ± 0.32 |

| Substance | amyloid nucleation score |
| --- | --- |
| RHKYMIKVILRHFTFIIIGS | -0.05 ± 0.62 |
| GLSNLR | -0.114 ± 1 |
| KKTSEKLEGYNVNISVLRGY | 2.59 ± 0.23 |
| LVFGVLQVCVLCSVTDNLGA | 0.159 ± 0.35 |
| LLNFGVLGSDLSINKCNFSS | 1.89 ± 0.18 |
| MSLGMCFKWRHRNIVYNLSA | -0.408 ± 0.63 |
| FVTRGSVAMTQVGYNTVIRM | 5.64 ± 0.061 |
| SNMNNPRHLCAKLSKRQMSY | inactive |
| SEAKGYLIWGFLWLFGYDFE | -0.802 ± 0.63 |
| YIELMGHWVGTSRKCVSDRS | -0.243 ± 1.1 |
| SCNPRKNGSQCCGMNLSLSV | 0.808 ± 0.8 |
| SNEIQNII | 0.57 ± 0.81 |
| YFWTFTSWQTTGRCHSP | 0.521 ± 0.17 |
| GCKSGDQDLALRNGCRKQRS | 0.594 ± 0.45 |
| YGLDRIFVSGSMNATMIKHN | inactive |
| LVGLISRNKVVRTGIENNKD | -0.059 ± 0.55 |
| NVLGQNAQPPNMDFYVTMIC | 0.508 ± 0.56 |
| LCGTLLIMKRVMSGYNLQAK | -0.37 ± 0.26 |
| CVNSLALGRVSIVGISSGWW | 0.284 ± 0.51 |
| RDMGPLVNAPVA | 0.282 ± 0.46 |
| GWGFFIDSYQHGLLM | -1.27 ± 0.54 |
| IQASSLMVAKERFWGDLWWL | 4.34 ± 0.1 |
| LHWKWQMNCLWSEGSHCFNN | 0.116 ± 0.33 |
| GALGTRRFSGMCLVCESRSG | 5.28 ± 0.097 |
| YIRIYRVTMRFNCINVAPWG | 6.928 ± 0.048 |

| Substance | amyloid nucleation score |
| --- | --- |
| FKNCDGRNIRSSHNPFNMVR | -0.857 ± 0.34 |
| RLYKSARVASHVDLGCTFRC | 1.35 ± 0.18 |
| LKMKFSYDWGVDTILLCRKA | 0.284 ± 1.1 |
| GNRVWERTNFELSSDRESGV | 0.832 ± 0.27 |
| IVNSNWGARRNKRAACQRES | -0.317 ± 0.79 |
| HFLVHFVFDLIRCVLAFVYC | 0.61 ± 0.12 |
| DLVNV | 1.8 ± 0.38 |
| TNRRILSFGVNL | -0.427 ± 0.78 |
| MTGSTSKMGRCFWQFICSGL | inactive |
| SERTLNLRSKSSPHPCST | 3.86 ± 0.12 |
| LAGIRCVIDRLMLCRVDAIK | -0.656 ± 0.28 |
| FFDSLGAGRYNRIRRWLSVV | -1.33 ± 0.44 |
| KWKASVSFFNGHWDGLFANL | 5.07 ± 0.056 |
| VSAWWQDVYSCTHTHAPAAQ | 5.46 ± 0.098 |
| TVNLGSYSEMRFLLLQEQAS | -0.747 ± 0.63 |
| RFVIVIPQFYYVYFLRRSWT | -1.24 ± 1 |
| TLYVVYLDEICYLLFKVSYC | 1.2 ± 0.66 |
| NLDCLYTLAS | 0.339 ± 0.8 |
| VFFFKRLYTKVCF | inactive |
| ICACKSY | 5.28 ± 0.076 |
| TSPNFLSRLQVRYYRIRVSL | -0.026 ± 0.35 |
| PSQVL | 0.992 ± 0.52 |
| ACNWLESFIKCFICVWYRDK | 7.73 ± 0.079 |
| NSLLVFQNNFGIETNGVNII | 0.94 ± 0.74 |
| RIKMGSSGNLCFIWSMHMYD | 6.496 ± 0.044 |

| Substance | amyloid nucleation score |
| --- | --- |
| LFFSCHRVDCHSALNMFIVS | 5.53 ± 0.065 |
| WRSYDMYSSWSIYVMAMTIS | -1.11 ± 0.53 |
| RFLEALTVRHCSPL | 4.71 ± 0.06 |
| LCFNLLNPCGRFGVECGCVL | 4.53 ± 0.069 |
| FDVLMRSTGRANKKFLVCRQ | -0.033 ± 0.38 |
| WKGSEELRSGMAYVDGTGGE | 1.32 ± 0.39 |
| VVSERRAFVRGVFDWIITLD | -0.02 ± 0.55 |
| RLFVPFVFFQAMPTEREPFH | -0.79 ± 1 |
| FDQVWRCVASLRPIVLSCSS | 0.322 ± 0.54 |
| FRLYFHPGVNGAET | -0.356 ± 0.64 |
| CSEVLRTFGKARHTEAR | 0.501 ± 0.2 |
| HHATKNFCTLFCLKSWGRFS | 7.767 ± 0.059 |
| LLFRRMEKSRLSLERV | -0.257 ± 0.45 |
| HSSAFMRMLMFRELRRNSDP | inactive |
| IQDWHVES | -0.075 ± 0.46 |
| LYWRKTVITIEWSCSGGNLR | 0.278 ± 0.27 |
| PDGAWARLSKSGAEAYLSNF | -0.299 ± 1.1 |
| LIVKCSYLSWQAGIWAGFGY | 2.9 ± 0.089 |
| IIRVSSCPCTNI | inactive |
| LEPYLS | -0.48 ± 0.49 |
| LNVITSVTLRVDWRAVWRKY | 0.134 ± 0.53 |
| VHFMIMQNSNCYCVKHIDFM | 9.425 ± 0.04 |
| TFDPMVGLGISLSALCMGRL | -0.104 ± 0.39 |
| NMGLFGGILVFVMWLIMCSL | 2.31 ± 0.15 |
| NIFRMHLGQASQVIIFLDCR | 4.58 ± 0.12 |

| Substance | amyloid nucleation score |
| --- | --- |
| SLCGRRFNTDEPLLETRSSL | 0.817 ± 0.51 |
| VTANNFKWVVIWLSWRGYGD | -1.48 ± 1.1 |
| KHVLGWNISFFYFTFAIG | inactive |
| FKPYF | inactive |
| SRLNNLRYLYYLTGFRSLMT | inactive |
| MYTAMSDSPFNVWRYGMSSY | -0.382 ± 0.29 |
| ILASCTSRCFESEVRGTSFA | 0.568 ± 0.39 |
| VDNSLVNMLTAMGWSGFMHT | 0.255 ± 0.49 |
| FFESCRLVNFELLVLSFFIG | -0.527 ± 0.28 |
| DMVDLCSKDMSRALFGPNMS | 5.39 ± 0.059 |
| YNESVHANVYVLLILKGLES | 6.621 ± 0.048 |
| NNLKLCNRTMCLVYEVCVTD | -1.23 ± 0.62 |
| TFAATIGTCMVEILSMGSPG | 0.603 ± 0.52 |
| SCSRWHYESSYLYIDTLEDY | 0.347 ± 0.55 |
| VTDQVVFSEWIAADYMFDKY | 0.491 ± 0.52 |
| GDCNGSLLKWWR | 0.395 ± 0.55 |
| TLKVCSVLIYLYWN | -1.34 ± 0.75 |
| RYNRN | -0.195 ± 0.36 |
| CDSVLPRLLNYKYTKNK | 0.14 ± 0.63 |
| KDCYNHSGRTGVVTDQKAQW | -0.118 ± 0.41 |
| VWRNRSGNITSVTFL | 5.23 ± 0.069 |
| AYCFVGFALVRCVGANDVRR | 1.6 ± 0.22 |
| QIYSMDMQRMNKCCCEDGEV | inactive |

— the supplement of paper PMC12042874
